Consider one variant from paper PMC13598120.

B1: Flag-tagged GNL3 (Flag-GNL3), wild type [human] / RAD51, endogenous [human (endogenous in U2OS and HeLa)] (parent)
chain 1: MKRPKLKKASKRMTCHKRYKIQKKVREHHRKLRKEAKKRGHKKPRKDPGVPNSAPFKEALLREAELRKQRLEELKQQQKLDRQKELEKKRKLETNPDIKPSNVEPMEKEFGLCKTENKAKSGKQNSKKLYCQELKKVIEASDVVLEVLDARDPLGCRCPQVEEAIVQSGQKKLVLILNKSDLVPKENLESWLNYLKKELPTVVFRASTKPKDKGKITKRVKAKKNAAPFRSEVCFGKEGLWKLLGGFQETCSKAIRVGVIGFPNVGKSSIINSLKQEQMCNVGVSMGLTRSMQVVPLDKQITIIDSPSFIVSPLNSSSALALRSPASIEVVKPMEAASAILSQADARQVVLKYTVPGYRNSLEFFTVLAQRRGMHQKGGIPNVEGAAKLLWSEWTGASLAYYCHPPTSWTPPPYFNESIVVDMKSGFNLEELEKNNAQSIRAIKGPHLANSILFQSSGLTNGIIEEKDIHEELPKRKERKQEEREDDKDSDQETVDEEVDENSSGMFAAEETGEALSEETTAGEQSTRSFILDKIIEEDDAYDFSTDYV
chain 2: MAMQMQLEANADTSVEEESFGPQPISRLEQCGINANDVKKLEEAGFHTVEAVAYAPKKELINIKGISEAKADKILAEAAKLVPMGFTTATEFHQRRSEIIQITTGSKELDKLLQGGIETGSITEMFGEFRTGKTQICHTLAVTCQLPIDRGGGEGKAMYIDTEGTFRPERLLAVAERYGLSGSDVLDNVAYARAFNTDHQTQLLYQASAMMVESRYALLIVDSATALYRTDYSGRGELSARQMHLARFLRMLLRLADEFGVAVVITNQVVAQVDGAAMFAADPKKPIGGNIIAHASTTRLYLRKGRGETRICKIYDSPCLPEAEAMFAINADGVGDAKD

Variants of B1 are the subject of the first test. Description: co-IP (anti-Flag IP, IB RAD51, band quantification). The following applies: with RAD51, endogenous [human (endogenous in U2OS and HeLa)]; U2OS cells; 20 μM ETO, 0 h; read off a plot.
As for chain 1 MKRPKLKKASKRMTCHKRYKIQKKVREHHRKLRKEAKKRGHKKPRKDPGVPNSAPFKEALLREAELRKQRLEELKQQQKLDRQKELEKKRKLETNPDIKPSNVEPMEKEFGLCKTENKAKSGKQNSKKLYCQELKKVIEASDVVLEVLDARDPLGCRCPQVEEAIVQSGQKKLVLILNKSDLVPKENLESWLNYLRKELPTVVFRASTKPKDKGKITKRVKAKKNAAPFRSEVCFGKEGLWKLLGGFQETCSKAIRVGVIGFPNVGKSSIINSLKQEQMCNVGVSMGLTRSMQVVPLDKQITIIDSPSFIVSPLNSSSALALRSPASIEVVKPMEAASAILSQADARQVVLKYTVPGYRNSLEFFTVLAQRRGMHQKGGIPNVEGAAKLLWSEWTGASLAYYCHPPTSWTPPPYFNESIVVDMKSGFNLEELEKNNAQSIRAIKGPHLANSILFQSSGLTNGIIEEKDIHEELPKRKERKQEEREDDKDSDQETVDEEVDENSSGMFAAEETGEALSEETTAGEQSTRSFILDKIIEEDDAYDFSTDYV [chain 1 K196R], the response (relative level) was 0.17.

Still in this test, the particulars now being: with RAD51, endogenous [human (endogenous in U2OS and HeLa)]; U2OS cells; 20 μM ETO, 2 h; read off a plot.
On to chain 1 MKRPKLKKASKRMTCHKRYKIQKKVREHHRKLRKEAKKRGHKKPRKDPGVPNSAPFKEALLREAELRKQRLEELKQQQKLDRQKELEKKRKLETNPDIKPSNVEPMEKEFGLCKTENKAKSGKQNSKKLYCQELKKVIEASDVVLEVLDARDPLGCRCPQVEEAIVQSGQKKLVLILNKSDLVPKENLESWLNYLRKELPTVVFRASTKPKDKGKITKRVKAKKNAAPFRSEVCFGKEGLWKLLGGFQETCSKAIRVGVIGFPNVGKSSIINSLKQEQMCNVGVSMGLTRSMQVVPLDKQITIIDSPSFIVSPLNSSSALALRSPASIEVVKPMEAASAILSQADARQVVLKYTVPGYRNSLEFFTVLAQRRGMHQKGGIPNVEGAAKLLWSEWTGASLAYYCHPPTSWTPPPYFNESIVVDMKSGFNLEELEKNNAQSIRAIKGPHLANSILFQSSGLTNGIIEEKDIHEELPKRKERKQEEREDDKDSDQETVDEEVDENSSGMFAAEETGEALSEETTAGEQSTRSFILDKIIEEDDAYDFSTDYV [chain 1 K196R], for which the response (relative level) was 0.52.

The test is the same for the next values; noted with them: with RAD51, endogenous [human (endogenous in U2OS and HeLa)]; U2OS cells; 20 μM ETO, 8 h; read off a plot.
In the case of chain 1 MKRPKLKKASKRMTCHKRYKIQKKVREHHRKLRKEAKKRGHKKPRKDPGVPNSAPFKEALLREAELRKQRLEELKQQQKLDRQKELEKKRKLETNPDIKPSNVEPMEKEFGLCKTENKAKSGKQNSKKLYCQELKKVIEASDVVLEVLDARDPLGCRCPQVEEAIVQSGQKKLVLILNKSDLVPKENLESWLNYLRKELPTVVFRASTKPKDKGKITKRVKAKKNAAPFRSEVCFGKEGLWKLLGGFQETCSKAIRVGVIGFPNVGKSSIINSLKQEQMCNVGVSMGLTRSMQVVPLDKQITIIDSPSFIVSPLNSSSALALRSPASIEVVKPMEAASAILSQADARQVVLKYTVPGYRNSLEFFTVLAQRRGMHQKGGIPNVEGAAKLLWSEWTGASLAYYCHPPTSWTPPPYFNESIVVDMKSGFNLEELEKNNAQSIRAIKGPHLANSILFQSSGLTNGIIEEKDIHEELPKRKERKQEEREDDKDSDQETVDEEVDENSSGMFAAEETGEALSEETTAGEQSTRSFILDKIIEEDDAYDFSTDYV [chain 1 K196R], the response (relative level) was found to be 0.31.
